Ends that are not written are not given here.
Legend:
[1] = biological target: T1, human Neuropeptide Y Receptor Y2 (Homo sapiens, UniProt P49146); experiment: In vitro receptor potency: inhibition of forskolin-stimulated cAMP in hY2 CHO-K1 cells; type: cell-based; details: for Average ratio to PYY2-36 ± SEM: ratio of example compound EC50 to PYY2-36 EC50, cAMP, hY2 CHO-K1 cells (DiscoverX), 0.02 mM forskolin, 30 minutes
T1 construct: host or cells: CHO-K1
T1 sequence (P49146 1-381): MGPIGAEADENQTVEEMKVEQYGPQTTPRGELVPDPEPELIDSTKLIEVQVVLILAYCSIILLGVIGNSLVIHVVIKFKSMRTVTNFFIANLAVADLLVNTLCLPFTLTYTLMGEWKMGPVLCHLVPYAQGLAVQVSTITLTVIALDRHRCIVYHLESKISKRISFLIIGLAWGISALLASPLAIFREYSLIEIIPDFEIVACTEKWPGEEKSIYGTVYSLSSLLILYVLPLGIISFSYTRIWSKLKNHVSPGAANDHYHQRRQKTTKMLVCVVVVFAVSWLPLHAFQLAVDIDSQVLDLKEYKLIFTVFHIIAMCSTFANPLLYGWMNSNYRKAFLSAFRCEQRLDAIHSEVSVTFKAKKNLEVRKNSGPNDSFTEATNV
Description: DiscoverX® hY2 CHO-K1 cells (10,000 cells per well (96 well plate)) were resuspended in media containing 0.2 mM IBMX and 0.02 mM forskolin (which stimulates cAMP production) and test peptides at a range of concentrations, for 30 minutes. The reaction stopped by lysing the cells and cAMP quantified 60 minutes later using Cisbio cAMP dynamic 2 kit.
Ten thousand cells per well (96 well plate) were resuspended in media containing 0.2 mM IBMX and 0.02 mM forskolin (which stimulates cAMP production) and test peptides at a range of concentrations, for 30 minutes. The reaction stopped by lysing the cells and cAMP quantified 60 minutes later using Cisbio cAMP dynamic 2 kit.

[2] = test system: overnight fasted male Wistar rats; experiment: Rat feeding experiment, single subcutaneous injection, food intake and body weight monitored for 6 days; type: in vivo; details: single subcutaneous injection of peptide in saline vs control saline; monitored for following 6 days; FIGS. 3A-3D, 4A-4D
Description: Animals were randomised into treatment groups, with stratification by body weight.

Row | Substance | Average ratio to PYY2-36 ± SEM [1] | ability to inhibit forskolin production (potency compared with Y242) ([1]; hY2 CHO-K1 cells, compared with previous generation compound Y242, FIG. 2) | reductions in food intake and body weight [2]
1 | Y1518: example PYY analogue peptide; sequence given in FIGS. 1A-1D (PIKPEAPGEGASPEELLHYYAALRHFLNHLTRQRY-NH2) [Peptide Y1518] | 1.7 ± 0.13 | – | –
2 | Pro-Ile-Lys-Pro-Glu-Ala-Pro-Gly-Glu-Gly-Ala-Ser-Pro-Glu-Glu-Leu-Leu-His-Tyr-Tyr-Ala-Ala-Leu-Arg-His-Phe-Leu-Asn-His-Val-Thr-Arg-Gln-Arg-Tyr-NH2 (PIKPEAPGEGASPEELLHYYAALRHFLNHVTRQRY-NH2) [Peptide Y1419] | 0.8 ± 0.16 | much more potent inhibitor than the previous generation of preferred compounds | a single initial dose is still active at 160 hours after administration
3 | Y1421: example PYY analogue peptide; sequence given in FIGS. 1A-1D (PIKPEAPGQGASPEELLHYYAALRHFLNHVTRQRY-NH2) [Peptide Y1421] | 0.9 ± 0.09 | – | –

From US12617830B2, “Analogues of PYY” (IP2IPO Innovations Limited, priority 2017, dated 2026)
